According to article PMC10143822, “Structural Adaptation of the Single-Stranded DNA-Binding Protein C-Terminal to DNA Metabolizing Partners Guides Inhibitor Design” (Pharmaceutics, 2023):
Where a SMILES comes first, the peptide text is derived from it. Primed or numbered codes have the meaning given here. Where no end group is shown, it is not given here. [ ]: non-standard residue; d: D form. 5,6‑carboxyfluorescein = 5,6-carboxyfluorescein; Phe(4-CF3) = N[C@@H](Cc1ccc(C(F)(F)F)cc1)C(=O)O; Phe(3-Cl) = N[C@@H](Cc1cccc(Cl)c1)C(=O)O; Phe(4-Cl) = N[C@@H](Cc1ccc(Cl)cc1)C(=O)O; Pip = O=C(O)[C@@H]1CCCCN1; β3hD = NC(CC(=O)O)CC(=O)O; Nle = CCCC[C@H](N)C(=O)O; Pip′ = not defined here

What was measured:
[1] = target: T1, ExoI (Escherichia coli, UniProt P04995); assay: Isothermal titration calorimetry with ExoI; type: binding, E. coli; details: 20 mM Tris–HCl pH 8.0, 100 mM NaCl
T1 construct: His-tag (cleaved yes); host or cells: E. coli BL21 (DE3) pLysS
Procedure: (§1) Isothermal titration calorimetry (ITC) experiments were performed using a MicroCal VP-ITC titration microcalorimeter. ExoI was dialyzed extensively against the indicated buffer and cleared through centrifugation at 14,000 rpm for 15 min at 4 °C. RecO was subjected to a quick buffer exchange using an Amicon Ultra ultrafiltration device (Sigma). Protein concentrations were determined after the buffer exchange procedure.
(§2) The raw data were integrated using NITPIC [39]. The binding parameters, association equilibrium constant (KA), binding enthalpy (ΔH), and binding entropy (ΔS) were obtained by fitting the titration curves to a model of A + B = C in SEDPHAT [40]. Stoichiometry was fixed to 1:1 and the incompetent fraction was fitted for the protein concentration.

[2] = tested on: ExoI; details: 1 µM biotin-tagged peptide on streptavidin beads, lysate with 1 µM recombinant ExoI, 30 min; on-bead tryptic digestion, nanoLC-MS/MS intensities
Procedure: ExoI and RecO expressing cells were grown and lysed, as mentioned above. A fraction of cell lysate was used to quantify the recombinant protein content. BL21 (DE)3 pLysS cells were grown on LB media until OD600 = 2.0 and lysed using sonication. Recombinant protein containing lysates were diluted with BL21 (DE)3 pLysS lysate, setting the final concentration of the recombinant protein to 1 µM. SSB peptides (wtSSB, E1-sSSB, R2-sSSB) were immobilized onto Streptavidin DynaBeads using an N-terminal biotin tag. Then, 1 µM immobilized peptides were incubated with cell lysate for 30 min. Beads were washed with trypsin digestion buffer (20 mM TRIS pH = 8.0, 100 mM NaCl, 2 mM CaCl2). Beads were processed with an on-pellet digestion protocol. NanoLC-MS/MS analysis was carried out on a Waters ACQUITY UPLC M-Class LC system (Waters, Milford, MA, USA) coupled with a Q Exactive^TM Plus Hybrid Quadrupole-Orbitrap^TM mass spectrometer (Thermo Fisher Scientific, Waltham, MA, USA). The instrument was operated in the data-dependent mode. […]
To test the affinity improvement for E1-sSSB-Ct and R2-sSSB-Ct relative to wtSSB-Ct in a complex environment, we carried out a pull-down assay using bacterial cell lysates. […] The washed bead was digested, and tryptic peptides were detected using HPLC-MS.

[3] = target: T2, RecO (Escherichia coli, UniProt P0A7H3); assay: Isothermal titration calorimetry with RecO; type: binding; details: 50 mM HEPES pH 7.5, 50 mM NaCl, 25% glycerol; read-out: KD, ITC, RecO
T2 construct: His-tag (TEV site) (N, cleaved yes); made in house; host or cells: E. coli Rosetta cells
Procedure: as §1, §2

[4] = target: R2-sSSB with an N-terminal biotin tag, on Streptavidin DynaBeads (E. coli); assay: affinity purification with mass spectrometry; pull-down: 1 µM biotin peptide on Streptavidin DynaBeads, 30 min with E. coli lysate holding 1 µM recombinant ExoI or RecO; on-pellet tryptic digestion, nanoLC-MS/MS
[5] = target: T3, Escherichia coli RecO (Escherichia coli, UniProt P0A7H3 1-242); assay: ITC; peptide in the syringe titrated into RecO in the cell; 50 mM HEPES pH 7.5, 50 mM NaCl, 25% glycerol, 1 mM TCEP; model A + B = C, stoichiometry fixed to 1:1, incompetent fraction fitted; details: both partners purified
T3 construct: RecO of Escherichia coli, synthetic gene in pET28a+ with a TEV site at the 5' end; The His tag was cut off with TEV protease only for the purified protein; source: E. coli Rosetta, purified (Ni-NTA, heparin); also in cell lysate (pull-down); not shown: His tag, N-terminal, cleaved
T3 sequence: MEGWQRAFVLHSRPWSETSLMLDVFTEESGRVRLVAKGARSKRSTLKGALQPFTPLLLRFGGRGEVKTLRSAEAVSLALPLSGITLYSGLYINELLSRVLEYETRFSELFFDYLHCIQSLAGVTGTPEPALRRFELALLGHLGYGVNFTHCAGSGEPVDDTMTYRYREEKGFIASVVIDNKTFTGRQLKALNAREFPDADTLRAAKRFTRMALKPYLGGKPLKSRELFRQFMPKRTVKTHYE

[6] = target: T3, Escherichia coli RecO; assay: fluorescence polarisation; competition fluorescence anisotropy: 0.5 µM RecO, 50 nM F-wtSSB tracer, 0–500 µM unlabeled peptide, 30 min at room temperature, read at 25 °C; 20 mM Tris-HCl pH 8.0, 200 mM NaCl, 1 mM 2-mercaptoethanol, 10% glycerol, 0.01% Triton-X 100; details: both partners purified
[7] = target: E1-sSSB with an N-terminal biotin tag, on Streptavidin DynaBeads (E. coli); assay: affinity purification with mass spectrometry; pull-down: 1 µM biotin peptide on Streptavidin DynaBeads, 30 min with E. coli lysate holding 1 µM recombinant ExoI or RecO; on-pellet tryptic digestion, nanoLC-MS/MS
[8] = target: T3, Escherichia coli RecO; assay: fluorescence polarisation; direct fluorescence anisotropy: RecO serially diluted from 7.5 µM, 50 nM fluorescein-labelled peptide, 30 min, 25 °C; 20 mM Tris-HCl pH 8.0, 200 mM NaCl, 1 mM 2-mercaptoethanol, 10% glycerol, 0.01% Triton-X 100; details: both partners purified
[9] = target: T4, E. coli Exonuclease I (E. coli, UniProt P04995 1-471); assay: fluorescence polarisation; direct fluorescence anisotropy: ExoI serially diluted from 16 µM, 50 nM fluorescein-labelled peptide, 30 min, 25 °C; 20 mM Tris-HCl pH 8.0, 100 mM NaCl, 1 mM MgCl2, 1 mM 2-mercaptoethanol, 10% glycerol; details: both partners purified
T4 construct: Exonuclease I of E. coli, from plasmid pET14b-E. coli Exonuclease I (Addgene 104552); The His tag was cut off with thrombin only for the purified protein; also called ExoI; Exol; source: E. coli BL21 (DE3) pLysS, purified (Ni-NTA, heparin); also in cell lysate (pull-down)
T4 sequence: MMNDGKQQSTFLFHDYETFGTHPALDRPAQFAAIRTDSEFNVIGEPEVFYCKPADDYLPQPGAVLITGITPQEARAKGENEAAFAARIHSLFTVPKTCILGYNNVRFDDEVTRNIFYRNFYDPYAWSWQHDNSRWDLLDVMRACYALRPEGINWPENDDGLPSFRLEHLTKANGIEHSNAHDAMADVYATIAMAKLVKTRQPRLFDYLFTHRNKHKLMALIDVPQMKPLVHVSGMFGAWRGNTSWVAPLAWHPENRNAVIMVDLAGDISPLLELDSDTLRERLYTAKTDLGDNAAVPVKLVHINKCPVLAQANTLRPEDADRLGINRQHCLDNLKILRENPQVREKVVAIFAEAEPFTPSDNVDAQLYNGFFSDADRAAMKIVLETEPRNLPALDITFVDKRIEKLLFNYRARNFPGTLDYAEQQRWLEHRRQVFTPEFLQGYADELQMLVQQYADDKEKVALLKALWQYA

[10] = target: T4, E. coli Exonuclease I; assay: fluorescence polarisation; competition fluorescence anisotropy: 0.5 µM ExoI, 50 nM F-wtSSB tracer, 0–500 µM unlabeled peptide, 30 min at room temperature, read at 25 °C; 20 mM Tris-HCl pH 8.0, 100 mM NaCl, 1 mM MgCl2, 1 mM 2-mercaptoethanol, 10% glycerol; details: both partners purified
[11] = target: T4, E. coli Exonuclease I; assay: ITC; peptide in the syringe titrated into ExoI in the cell; 20 mM Tris–HCl pH 8.0, 100 mM NaCl, 1 mM MgCl2, 4% glycerol, 1 mM β-mercaptoethanol; model A + B = C, stoichiometry fixed to 1:1, incompetent fraction fitted; details: both partners purified
[12] = target: T3, Escherichia coli RecO; assay: fluorescence polarisation; competition fluorescence anisotropy: 0.5 µM RecO, 50 nM F-wtSSB tracer, 0–500 µM unlabeled peptide, 30 min at room temperature, read at 25 °C; 20 mM Tris-HCl pH 8.0, 200 mM NaCl, 1 mM 2-mercaptoethanol, 10% glycerol, 0.01% Triton-X 100; details: both partners purified; remark: listed apart in the source
[13] = target: T4, E. coli Exonuclease I; assay: fluorescence polarisation; competition fluorescence anisotropy: 0.5 µM ExoI, 50 nM F-wtSSB tracer, 0–500 µM unlabeled peptide, 30 min at room temperature, read at 25 °C; 20 mM Tris-HCl pH 8.0, 100 mM NaCl, 1 mM MgCl2, 1 mM 2-mercaptoethanol, 10% glycerol; details: both partners purified; remark: listed apart in the source

T1 sequence (P04995 whole entry): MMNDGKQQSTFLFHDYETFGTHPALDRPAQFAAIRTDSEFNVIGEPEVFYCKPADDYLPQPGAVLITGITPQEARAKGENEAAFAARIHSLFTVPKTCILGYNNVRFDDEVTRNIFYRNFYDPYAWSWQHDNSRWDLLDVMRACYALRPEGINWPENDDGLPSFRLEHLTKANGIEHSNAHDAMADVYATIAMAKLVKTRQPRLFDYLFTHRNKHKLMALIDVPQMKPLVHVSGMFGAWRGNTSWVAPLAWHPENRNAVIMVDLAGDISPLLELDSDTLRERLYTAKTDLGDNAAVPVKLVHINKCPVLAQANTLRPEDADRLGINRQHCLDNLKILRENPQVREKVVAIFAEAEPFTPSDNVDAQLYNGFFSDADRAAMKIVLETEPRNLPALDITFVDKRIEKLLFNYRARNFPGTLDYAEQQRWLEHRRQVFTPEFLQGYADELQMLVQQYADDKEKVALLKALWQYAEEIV

CC(=O)N[C@@H](CCC(=O)O)C(=O)N[C@@H](Cc1ccc(C(F)(F)F)cc1)C(=O)N[C@@H](CC(=O)O)C(=O)N[C@@H](CC(=O)O)CC(=O)N[C@@H](CCC(=O)O)C(=O)N[C@@H](CC(C)C)C(=O)N1CCCC[C@H]1C(=O)N[C@@H](Cc1ccc(C(F)(F)F)cc1)C(=O)O [E1-sSSB-Ct] (Ac-E[Phe(4-CF3)]D[β3hD]EL[Pip][Phe(4-CF3)]-OH) was tested, and the “ΔG, ITC, ExoI” value [1] was -10.89 kcal/mol, the “−TΔS, ITC, ExoI” value [1] was 6.46 kcal/mol and the “N (stoichiometry), ITC, ExoI” value ([1]; 1 mM MgCl2, 4% glycerol, model A + B = C, stoichiometry fixed 1:1, incompetent fraction fitted) was 1.0000. The “ΔH, ITC, ExoI” value ([1]; confidence interval in brackets) was −17.35 (−18.34–−16.43) kcal/mol, the Kd ([1]; read-out: KD, ITC, ExoI (in nM), 1:1 stoichiometry) was 19 nM and the “enrichment of ExoI on immobilized peptide compared to wtSSB-Ct” value [2] was “two-fold”.

CC[C@H](C)[C@H](NC(=O)[C@H](CC(=O)O)NC(=O)[C@H](CC(=O)O)NC(=O)[C@H](CC(=O)O)NC(=O)[C@H](Cc1ccc(Cl)cc1)NC(=O)[C@H](CC(=O)O)NC(C)=O)C(=O)N1CCC[C@H]1C(=O)N[C@@H](Cc1cccc(Cl)c1)C(=O)O [R2-sSSB-Ct] (Ac-D[Phe(4-Cl)]DDDIP[Phe(3-Cl)]-OH) showed a Kd [3] of 35 nM.

B1: Escherichia coli RecO (natural protein)
chain: MEGWQRAFVLHSRPWSETSLMLDVFTEESGRVRLVAKGARSKRSTLKGALQPFTPLLLRFGGRGEVKTLRSAEAVSLALPLSGITLYSGLYINELLSRVLEYETRFSELFFDYLHCIQSLAGVTGTPEPALRRFELALLGHLGYGVNFTHCAGSGEPVDDTMTYRYREEKGFIASVVIDNKTFTGRQLKALNAREFPDADTLRAAKRFTRMALKPYLGGKPLKSRELFRQFMPKRTVKTHYE
Work on B1 yielded a fold enrichment as compared to wtSSB-Ct [4] of 10 fold.

B2: R2-sSSB-Ct (Asp–4Cl-Phe–Asp–Asp–Asp–Ile–Pro–3Cl-Phe) (peptide)
peptide: Ac-D[Phe(4-Cl)]DDDIP[Phe(3-Cl)]
notes: SSB-Ct of E. coli SSB (residues 171-178), printed in three-letter code; F2 stands for 4Cl-Phe, F8 for 3Cl-Phe; numbers count on: the octapeptide (position 1 = SSB residue 171); source: synthetic peptide
In the case of B2, the Kd [5] is reported as 40 nM, the dH [5] is reported as -23.5 kcal/mol and the “stoichiometry N” value [5] is reported as 1. It also gave an IC50 [6] of 590 nM.

B3: E. coli Exonuclease I (enzyme)
chain: MMNDGKQQSTFLFHDYETFGTHPALDRPAQFAAIRTDSEFNVIGEPEVFYCKPADDYLPQPGAVLITGITPQEARAKGENEAAFAARIHSLFTVPKTCILGYNNVRFDDEVTRNIFYRNFYDPYAWSWQHDNSRWDLLDVMRACYALRPEGINWPENDDGLPSFRLEHLTKANGIEHSNAHDAMADVYATIAMAKLVKTRQPRLFDYLFTHRNKHKLMALIDVPQMKPLVHVSGMFGAWRGNTSWVAPLAWHPENRNAVIMVDLAGDISPLLELDSDTLRERLYTAKTDLGDNAAVPVKLVHINKCPVLAQANTLRPEDADRLGINRQHCLDNLKILRENPQVREKVVAIFAEAEPFTPSDNVDAQLYNGFFSDADRAAMKIVLETEPRNLPALDITFVDKRIEKLLFNYRARNFPGTLDYAEQQRWLEHRRQVFTPEFLQGYADELQMLVQQYADDKEKVALLKALWQYA
For B3, the fold enrichment as compared to wtSSB-Ct [7] was 2 fold.

B4: F-nLe6 (fluorescein-labelled single mutant) (peptide)
chain: {5,6‑carboxyfluorescein}-DFDDD[Nle]PF
Work on B4 yielded an EC50 [8] of 200 ± 10 nM and an EC50 [9] of 200 ± 10 nM.

B5: E1-sSSB-Ct (Glu–4-CF3-Phe–Asp–β^3-Asp–Glu–Leu–Pip–4-CF3-Phe) (peptide)
chain: Ac-E[Phe(4-CF3)]D[β3hD]EL[Pip′][Phe(4-CF3)]
modifications: not fully specified; printed as E1-sSSB-Ct (Glu–4-CF3-Phe–Asp–β^3-Asp–Glu–Leu–Pip–4-CF3-Phe)
For B5, the IC50 [10] was 170 nM, the Kd [11] was 20 nM and the dH [11] was -17.4 kcal/mol. The “stoichiometry N” value [11] was 1.

B6: wtSSB-Ct, octapeptide identical to the SSB C-terminal acidic tip (residues 171-178 of SSB) (peptide)
peptide: Ac-DFDDDIPF
notes: also called wild-type SSB-Ct; source: synthetic peptide (solid phase, HPLC purified)
B6 was tested, and the Kd [11] was 3070 nM, the dH [11] was -10.7 kcal/mol and the “stoichiometry N” value [11] was 0.959. For the same molecule, the Kd [5] was 140 nM, the dH [5] was -7.54 kcal/mol and the “stoichiometry N” value [5] was 1. It also gave an IC50 [12] of 4.66 ± 0.24 µM and an IC50 [13] of 4.54 ± 0.34 µM.

B7: mSSB-Ct Leu6 (unlabelled single mutant) (peptide)
peptide: Ac-DFDDDLPF
notes: E. coli SSB C-terminal tip (SSB-Ct), residues 171-178; numbers count on: the octapeptide (position 1 = SSB residue 171); also called isoleucine to leucine at position 6; source: synthetic peptide
B7 was tested, and the IC50 [6] was 3220 nM.

B8: fluorescein-labeled wtSSB-Ct (peptide)
peptide: {5,6‑carboxyfluorescein}-GGDFDDDIPF
notes: two glycines between the 5,6-carboxyfluorescein and the peptide; also called F-SSB-Ct; F-wtSSB-Ct; source: synthetic peptide (solid phase, HPLC purified)
Work on B8 yielded an EC50 [8] of 370 ± 30 nM and an EC50 [9] of 350 ± 40 nM.

B9: F-Glu5 (fluorescein-labelled single mutant) (peptide)
peptide: {5,6‑carboxyfluorescein}-GGDFDDEIPF
notes: two glycines between the 5,6-carboxyfluorescein and the peptide; E. coli SSB-Ct, residues 171-178; numbers count on: the octapeptide (position 1 = SSB residue 171); One of Compounds 54-62 of the Supplementary Material; also called F-mSSB Glu5; source: synthetic peptide
Molecule B9 has an EC50 [8] of 200 ± 20 nM and an EC50 [9] of 110 ± 10 nM.

B10: mSSB-Ct nLe6 (unlabelled single mutant) (peptide)
chain: Ac-DFDDD[Nle]PF
Molecule B10 has an IC50 [6] of 2550 nM.
